Our source for the EC50 values is patent publication US20240092901A1.

Test in all cases: ELISA
The target in experiment [1] is human Ror2 (receptor tyrosine kinase-like orphan receptor 2) (human) (UniProt Q01974).
The next experiment concerns the target mouse Ror2 (mouse) (UniProt Q9Z138).
In experiment [2] the target is cynomolgus Ror2 (cynomolgus).

Sequence of mouse Ror2 (mouse) (Q9Z138 34-403 limits assumed): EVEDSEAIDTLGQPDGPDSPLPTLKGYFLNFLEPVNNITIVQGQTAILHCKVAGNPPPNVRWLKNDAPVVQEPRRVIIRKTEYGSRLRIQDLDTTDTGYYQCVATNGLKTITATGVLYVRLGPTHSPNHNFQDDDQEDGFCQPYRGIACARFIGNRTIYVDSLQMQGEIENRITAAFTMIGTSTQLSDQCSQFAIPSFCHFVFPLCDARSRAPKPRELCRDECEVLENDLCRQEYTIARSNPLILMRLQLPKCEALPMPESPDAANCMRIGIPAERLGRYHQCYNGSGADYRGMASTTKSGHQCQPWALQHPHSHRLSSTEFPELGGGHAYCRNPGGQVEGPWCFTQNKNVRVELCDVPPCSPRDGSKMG
Sequence of human Ror2 (receptor tyrosine kinase-like orphan receptor 2) (human) (Q01974 34-403 limits assumed): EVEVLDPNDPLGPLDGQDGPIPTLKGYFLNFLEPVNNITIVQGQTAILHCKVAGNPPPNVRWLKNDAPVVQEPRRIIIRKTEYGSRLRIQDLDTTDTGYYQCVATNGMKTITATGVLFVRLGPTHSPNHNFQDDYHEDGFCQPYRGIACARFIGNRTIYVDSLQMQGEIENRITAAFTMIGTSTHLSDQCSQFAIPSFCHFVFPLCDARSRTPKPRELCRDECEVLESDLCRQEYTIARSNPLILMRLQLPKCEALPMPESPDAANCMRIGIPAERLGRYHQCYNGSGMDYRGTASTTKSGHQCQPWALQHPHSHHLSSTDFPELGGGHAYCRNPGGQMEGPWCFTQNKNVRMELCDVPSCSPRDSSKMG

B1: conditionally active antibody BAP048 (antibody, from a related filing, V domains shown)
VH: EVQLVQSGAEVKKPGESLRISCKGSGYTFTEYTMHWVRQAPGQGLEWMGGINTNNGGTGYNQKFKGRVTISADKSISTAYLQWSSLKASDTAMYYCAHGSLYSYGNSYFDYWGQGTLVTVSS
VL: AIQLTQSPSSLSASVGDRVTITCSATSSVSYMHWYLQKPGQSPQLLIYGTSNLASGVPDRFSGSGSGTDFTLKISRVEAEDVGVYYCQQRSSYPFTFGQGTKVEIK
Turning to B1, the results for the EC50 (in experiment [1]; in the experiment with mouse Ror2 (mouse); in experiment [2]) were 0.201 µg/mL, 7.65 µg/mL and 0.327 µg/mL, respectively.
